Changes are numbered by the printed parent chain. Numbered stars: 1 amine (or outer) side, 2 acyl side, 3 side chain; on linkers, the order of the positions; unused ones are H or OH. Square brackets hold non-standard residues; d marks the D form. Side chains are listed from the residue outwards. Ends that are not written are not given here. * marks the point of attachment. C20 diacid = O=C(O)CCCCCCCCCCCCCCCCCCC(=O)*; γGlu = O=C(O)[C@H](CCC(=O)[*:2])N[*:1]; AEEA = NCCOCCOCC(=O)O; Aib = CC(C)(N)C(=O)O
B1: Peptide 26 (peptide)
peptide: Y[Aib]EGTFTSDYSIK([AEEA-AEEA-γGlu-C20 diacid])LDKIAQ[Aib]AFIEYLIEGGPSSGAPPPS-NH2
modifications: N-terminus assumed
SMILES: CC[C@H](C)[C@H](NC(=O)[C@H](CCCCN)NC(=O)[C@H](CC(=O)O)NC(=O)[C@H](CC(C)C)NC(=O)[C@H](CCCCNC(=O)COCCOCCNC(=O)COCCOCCNC(=O)CC[C@H](NC(=O)CCCCCCCCCCCCCCCCCCC(=O)O)C(=O)O)NC(=O)[C@@H](NC(=O)[C@H](CO)NC(=O)[C@H](Cc1ccc(O)cc1)NC(=O)[C@H](CC(=O)O)NC(=O)[C@H](CO)NC(=O)[C@@H](NC(=O)[C@H](Cc1ccccc1)NC(=O)[C@@H](NC(=O)CNC(=O)[C@H](CCC(=O)O)NC(=O)C(C)(C)NC(=O)[C@@H](N)Cc1ccc(O)cc1)[C@@H](C)O)[C@@H](C)O)[C@@H](C)CC)C(=O)N[C@@H](C)C(=O)N[C@@H](CCC(N)=O)C(=O)NC(C)(C)C(=O)N[C@@H](C)C(=O)N[C@@H](Cc1ccccc1)C(=O)N[C@H](C(=O)N[C@@H](CCC(=O)O)C(=O)N[C@@H](Cc1ccc(O)cc1)C(=O)N[C@@H](CC(C)C)C(=O)N[C@H](C(=O)N[C@@H](CCC(=O)O)C(=O)NCC(=O)NCC(=O)N1CCC[C@H]1C(=O)N[C@@H](CO)C(=O)N[C@@H](CO)C(=O)NCC(=O)N[C@@H](C)C(=O)N1CCC[C@H]1C(=O)N1CCC[C@H]1C(=O)N1CCC[C@H]1C(=O)N[C@@H](CO)C(N)=O)[C@@H](C)CC)[C@@H](C)CC
B2: Peptide 29 (peptide)
peptide: Y[Aib]EGTFTSDYSILLDK([AEEA-AEEA-γGlu-C20 diacid])IAQ[Aib]AFIEYLIEGGPSSGAPPPS-NH2
modifications: N-terminus assumed
SMILES: CC[C@H](C)[C@H](NC(=O)[C@H](CCCCNC(=O)COCCOCCNC(=O)COCCOCCNC(=O)CC[C@H](NC(=O)CCCCCCCCCCCCCCCCCCC(=O)O)C(=O)O)NC(=O)[C@H](CC(=O)O)NC(=O)[C@H](CC(C)C)NC(=O)[C@H](CC(C)C)NC(=O)[C@@H](NC(=O)[C@H](CO)NC(=O)[C@H](Cc1ccc(O)cc1)NC(=O)[C@H](CC(=O)O)NC(=O)[C@H](CO)NC(=O)[C@@H](NC(=O)[C@H](Cc1ccccc1)NC(=O)[C@@H](NC(=O)CNC(=O)[C@H](CCC(=O)O)NC(=O)C(C)(C)NC(=O)[C@@H](N)Cc1ccc(O)cc1)[C@@H](C)O)[C@@H](C)O)[C@@H](C)CC)C(=O)N[C@@H](C)C(=O)N[C@@H](CCC(N)=O)C(=O)NC(C)(C)C(=O)N[C@@H](C)C(=O)N[C@@H](Cc1ccccc1)C(=O)N[C@H](C(=O)N[C@@H](CCC(=O)O)C(=O)N[C@@H](Cc1ccc(O)cc1)C(=O)N[C@@H](CC(C)C)C(=O)N[C@H](C(=O)N[C@@H](CCC(=O)O)C(=O)NCC(=O)NCC(=O)N1CCC[C@H]1C(=O)N[C@@H](CO)C(=O)N[C@@H](CO)C(=O)NCC(=O)N[C@@H](C)C(=O)N1CCC[C@H]1C(=O)N1CCC[C@H]1C(=O)N1CCC[C@H]1C(=O)N[C@@H](CO)C(N)=O)[C@@H](C)CC)[C@@H](C)CC
B3: Peptide 220 (peptide)
peptide: YXEGTXTSDYSIXLDEKAQXEFIXYLIEGG
modifications: Aib2; αMeF(2F)6; αMeL13; K17((2-[2-(2-Amino-ethoxy)-ethoxy]-acetyl)2-(γGlu)-CO-(CH2)16-CO2H); Aib20; D-Glu24; C-terminal NH2
B4: Peptide 210 (peptide)
peptide: YXEGTXTSDYSIXLDXKAQXEFIXYLIEGGPSSGAPPPS
modifications: Aib2; αMeF(2F)6; αMeL13; Dap16; K17((2-[2-(2-Amino-ethoxy)-ethoxy]-acetyl)2-(γGlu)-CO-(CH2)16-CO2H); Aib20; D-Glu24; C-terminal NH2
B5: Peptide 215 (peptide)
peptide: B4 peptide with X16E
modifications: Aib2; αMeF(2F)6; αMeL13; K17((2-[2-(2-Amino-ethoxy)-ethoxy]-acetyl)2-CO-(CH2)18-CO2H); Aib20; D-Glu24; C-terminal NH2
B6: Peptide 224 (peptide)
peptide: B4 peptide with X16E
modifications: Aib2; αMeF(2F)6; Aib13; K17((2-[2-(2-Amino-ethoxy)-ethoxy]-acetyl)2-(γGlu)-CO-(CH2)18-CO2H); Aib20; D-Glu24; C-terminal NH2
B7: Peptide 227 (peptide)
peptide: B4 peptide with X16E
modifications: Aib2; αMeF6; αMeL13; K17((2-[2-(2-Amino-ethoxy)-ethoxy]-acetyl)2-(γGlu)-CO-(CH2)18-CO2H); Aib20; D-Glu24; C-terminal NH2
B8: Peptide 213 (peptide)
peptide: B4 peptide with X16E
modifications: Aib2; αMeF6; αMeL13; K17((2-[2-(2-Amino-ethoxy)-ethoxy]-acetyl)2-(γGlu)-CO-(CH2)16-CO2H); Aib20; D-Glu24; C-terminal NH2
B9: Peptide 242 (peptide)
peptide: B4 peptide with Y10V, E21A, Y25X
modifications: not fully specified; Aib2; αMeF(2F)6; αMeL13; Orn16; K17((2-[2-(2-Amino-ethoxy)-ethoxy]-acetyl)2-(γGlu)-CO-(CH2)16-CO2H); Aib20; D-Glu24; αMeY25; C-terminal NH2
B10: Peptide 216 (peptide)
peptide: B4 peptide with X16E
modifications: Aib2; αMeF(2F)6; αMeL13; K17((2-[2-(2-Amino-ethoxy)-ethoxy]-acetyl)2-(εK)-CO-(CH2)18-CO2H); Aib20; D-Glu24; C-terminal NH2
B11: Peptide 239 (peptide)
peptide: B4 peptide with Y10X, E21T, Y25X
modifications: not fully specified; Aib2; αMeF(2F)6; 4Pal10; αMeL13; Orn16; K17((2-[2-(2-Amino-ethoxy)-ethoxy]-acetyl)2-(γGlu)-CO-(CH2)16-CO2H); Aib20; D-Glu24; αMeY25; C-terminal NH2
B12: Peptide 212 (peptide)
peptide: B4 peptide with X16K
modifications: Aib2; αMeF(2F)6; αMeL13; K17((2-[2-(2-Amino-ethoxy)-ethoxy]-acetyl)2-(γGlu)-CO-(CH2)18-CO2H); Aib20; D-Glu24; C-terminal NH2
B13: Peptide 211 (peptide)
peptide: B4 peptide with X16K
modifications: Aib2; αMeF(2F)6; αMeL13; K17((2-[2-(2-Amino-ethoxy)-ethoxy]-acetyl)-(γGlu)-(2-[2-(2-Amino-ethoxy)-ethoxy]-acetyl)-CO-(CH2)18-CO2H); Aib20; D-Glu24; C-terminal NH2
B14: Peptide 246 (peptide)
peptide: B4 peptide with Y10A, E21A, Y25X
modifications: not fully specified; Aib2; αMeF(2F)6; αMeL13; Orn16; K17((2-[2-(2-Amino-ethoxy)-ethoxy]-acetyl)2-(γGlu)-CO-(CH2)16-CO2H); Aib20; D-Glu24; αMeY25; C-terminal NH2
B15: Peptide 217 (peptide)
peptide: B4 peptide
modifications: Aib2; αMeF(2F)6; αMeL13; Dab16; K17((2-[2-(2-Amino-ethoxy)-ethoxy]-acetyl)2-(γGlu)-CO-(CH2)18-CO2H); Aib20; D-Glu24; C-terminal NH2

Target: human GLP-1 receptor (human, UniProt P43220 24-463)
Experiment: cell-based or functional assay

| Binder | hGLPIR cAMP EC50 ratio |
| --- | --- |
| B1 | 0.238 |
| B2 | 0.0671 |
| B3 | 1.36 |
| B4 | 1.03 |
| B5 | 0.813 |
| B6 | 1.06 |
| B7 | 1.07 |
| B8 | 0.694 |
| B9 | 1.96 |
| B10 | 1.31 |
| B11 | 0.987 |
| B12 | 0.771 |
| B13 | 1.28 |
| B14 | 2.56 |
| B15 | 1.14 |
